In publication PMC2778870, “The Crystal Structures of Yeast Get3 Suggest a Mechanism for Tail-Anchored Protein Membrane Insertion” (PLoS ONE, 2009):

Experiments:
D. hansenii Get3 = target: T1, D. hansenii Get3 (Debaryomyces hansenii, UniProt Q6BSM0); experiment: X-ray crystallography, […] A, co-crystallization; settings: 2 mM ADP, 1 mM MgCl2, 5 mM KCl, 0.2 M ammonium mono-basic phosphate, 20% glycerol; nucleotide-binding domain, closed dimer
T1 construct: recombinant, expressed and purified; homo-dimer; finger domain not visible in electron density
T1 sequence (Q6BSM0 1-348): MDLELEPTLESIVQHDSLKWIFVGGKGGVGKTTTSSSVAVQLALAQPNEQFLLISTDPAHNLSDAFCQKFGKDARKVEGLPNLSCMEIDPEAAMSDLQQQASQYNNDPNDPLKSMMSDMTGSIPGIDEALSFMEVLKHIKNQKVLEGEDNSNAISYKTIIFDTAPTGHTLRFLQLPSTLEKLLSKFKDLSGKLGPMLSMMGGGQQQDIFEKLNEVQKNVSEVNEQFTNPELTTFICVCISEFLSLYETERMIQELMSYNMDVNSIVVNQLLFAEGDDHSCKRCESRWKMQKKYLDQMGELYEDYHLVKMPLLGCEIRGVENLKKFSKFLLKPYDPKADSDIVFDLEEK

[1] = target: the molecule itself; experiment: crystal structure; D. hansenii Get3 with ADP, 1.8 Å; hanging drop, 0.2 M ammonium mono-basic phosphate, 20% glycerol, 1 mM MgCl2, 5 mM KCl, 2 mM ADP
[2] = target: the molecule itself; experiment: crystal structure; S. cerevisiae Get3, nucleotide-free, 2.3 Å; hanging drop, 100 mM MES pH 6.0, PEG 3350 15%, 0.2 M ammonium sulfate; two monomers in the asymmetric unit

Nc1ncnc2c1ncn2[C@@H]1O[C@H](COP(=O)(O)OP(=O)(O)O)[C@@H](O)[C@H]1O [ADP]
X-ray crystallography, 1.8 A, co-crystallization (D. hansenii Get3): The bound ADP molecule can be clearly identified in the Get3 nucleotide-binding domain (NBD)

B1: D. hansenii Get3 (enzyme)
chain: T1 sequence (Q6BSM0 1-348)
notes: Get3 ATPase of the yeast D. hansenii (Debaryomyces hansenii); finger domain not seen in the electron density; Crystallised with ADP and Mg; also called DhGet3; source: expressed and purified
stoichiometry N [1]: 2

B2: S. cerevisiae full-length Get3 (enzyme, UniProt Q12154 1-354, looked up)
chain: MDLTVEPNLHSLITSTTHKWIFVGGKGGVGKTTSSCSIAIQMALSQPNKQFLLISTDPAHNLSDAFGEKFGKDARKVTGMNNLSCMEIDPSAALKDMNDMAVSRANNNGSDGQGDDLGSLLQGGALADLTGSIPGIDEALSFMEVMKHIKRQEQGEGETFDTVIFDTAPTGHTLRFLQLPNTLSKLLEKFGEITNKLGPMLNSFMGAGNVDISGKLNELKANVETIRQQFTDPDLTTFVCVCISEFLSLYETERLIQELISYDMDVNSIIVNQLLFAENDQEHNCKRCQARWKMQKKYLDQIDELYEDFHVVKMPLCAGEIRGLNNLTKFSQFLNKEYNPITDGKVIYELEDKE
notes: Get3 (Arr4) ATPase, S. cerevisiae, full length; in the crystal residues 191-210 (molecule A) and 93-116 (molecule B) are not seen; Se-Met protein was used for phasing only; One Zn ion is held between the two monomers; also called ScGet3; Arr4; source: E. coli, purified (Ni-chelating column, gel-filtration column)
stoichiometry N [2]: 2
